Reference: publication PMC3406945, “A smallest 6 kda metalloprotease, mini-matrilysin, in living world: a revolutionary conserved zinc-dependent proteolytic domain- helix-loop-helix catalytic zinc binding domain (ZBD)” (Journal of Biomedical Science, 2012)
Values joined by “and” are separate entries in the source; they are usually repeats but may differ in a detail not shown here. Identical values can stand only once.

Target: the molecule itself
Experiment: CM-transferrin zymography; purified and refolded 6 kDa ZBD (heparin and Triton X-100 present) in sample buffer without dithiothreitol at room temperature, run on a 12.5% SDS-PAGE gel with 0.3 mg/ml CM-transferrin embedded; oligomer size read from the active bands

B1: recombinant rat matrilysin zinc-binding domain (ZBD) (domain or fragment, UniProt P50280 212-267, looked up)
chain: LFVATHELGHSLGLGHSSVPSSVMYPTYQGDHSEDFSLTKDDIAGIQKLYGKRNKL
notes: 212-267, said to correspond to human a.a; 188-247; called a 60-residue fragment; Cloned into the Nde1 and BamH1 sites of PET3a; also called 6 kDa ZBD; 6 kDa MMP-7 ZBD
- stoichiometry N: 6 and 8 and 5
